The experiment deals with acetylcholine receptor (Homo sapiens, UniProt P02708). In words: SPR binding affinity (RU) of optimized 5mer/6mer/7mer peptides, Examples 6-7. Particulars: SPR, peptides tested at 10 μM; 5mer Top sequence. How it is done: Based on the frequencies of occurrence of the top 7 amino acids from Table 7 in Example 5, 600 peptides comprising these amino acids (top combinations) and those comprising the 13 less frequently occurring amino acids (bottom combinations) were synthesized for each series of 5mer, 6mer-1, and 6mer-2. The binding affinity of each sequence for the acetylcholine receptor was measured using Surface Plasmon Resonance (SPR) analysis method. The peptides were tested at a concentration of 10 μM. Additionally, the average binding affinities of the top and bottom combinations in each series are depicted in FIGS. 5-7.
Chain of acetylcholine receptor (P02708 21-457): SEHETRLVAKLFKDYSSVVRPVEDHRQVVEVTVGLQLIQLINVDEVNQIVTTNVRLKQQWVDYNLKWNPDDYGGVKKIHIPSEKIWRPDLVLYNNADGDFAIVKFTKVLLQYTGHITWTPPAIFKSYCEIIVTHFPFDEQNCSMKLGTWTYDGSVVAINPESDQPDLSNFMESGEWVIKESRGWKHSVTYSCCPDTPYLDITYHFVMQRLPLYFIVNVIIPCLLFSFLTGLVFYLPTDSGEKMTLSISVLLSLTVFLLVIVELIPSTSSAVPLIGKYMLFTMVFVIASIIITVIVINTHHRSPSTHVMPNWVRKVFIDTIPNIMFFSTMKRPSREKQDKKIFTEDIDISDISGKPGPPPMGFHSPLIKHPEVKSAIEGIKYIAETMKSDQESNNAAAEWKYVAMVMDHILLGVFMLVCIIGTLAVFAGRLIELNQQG
Representative peptides identified in Example 6, two in each library, including 5mers (73, 311) and 6mers-1 (43, 210) and 6mers-2 (136, 233), were compared with the pre-optimized 6mer, 5mer-ND, and Synake.
Background: In SPR one partner is held on a chip, and binding of the other changes the refractive index at the surface.

On to 5mer-382 (RLRQR), for which the Binding affinity worked out at 62 Ru.

As to 5mer-383 (RWQRK), the Binding affinity worked out at 56 Ru.

As to 5mer-384 (KSLRK), the Binding affinity stood at 75 Ru.

For 5mer-385 (RGVYR), the Binding affinity worked out at 51 Ru.

As to 5mer-386 (RSFLK), the Binding affinity is reported as 78 Ru.

As to 5mer-387 (RRILR), the Binding affinity came to 52 Ru.

With 5mer-388 (KLFCK), the Binding affinity turned out to be 78 Ru.

In the case of 5mer-389 (KWRRR), the Binding affinity was found to be 57 Ru.

As to 5mer-390 (KRFCR), the Binding affinity came to 64 Ru.

As for 5mer-391 (KVFRR), the Binding affinity amounted to 72 Ru.

For 5mer-392 (RSRLR), the Binding affinity came out at 87 Ru.

Take 5mer-393 (KSLQR): the Binding affinity stood at 75 Ru.

For 5mer-394 (KRRRK), the Binding affinity was found to be 66 Ru.

With 5mer-395 (RWVCK), the Binding affinity is listed as 50 Ru.

Take 5mer-396 (KVVCR): the Binding affinity is listed as 53 Ru.

Consider 5mer-397 (RRITK), for which the Binding affinity amounted to 52 Ru.

Turning to 5mer-398 (KGQCR), the Binding affinity was determined as 71 Ru.

Take 5mer-399 (KWIQR): the Binding affinity was determined as 62 Ru.

Turning to 5mer-400 (RWRCK), the Binding affinity was 70 Ru.

For 5mer-401 (RGVLR), the Binding affinity came to 52 Ru.

Take 5mer-402 (RLRYR): the Binding affinity came to 86 Ru.

With 5mer-403 (RRLYK), the Binding affinity is reported as 64 Ru.

For the substance 5mer-404 (KGYLK), the Binding affinity was 83 Ru.

For 5mer-405 (KSYTK), the Binding affinity turned out to be 68 Ru.

On to 5mer-406 (KVYLR), for which the Binding affinity was 84 Ru.

In the case of 5mer-407 (RQIYK), the Binding affinity amounted to 58 Ru.

With 5mer-408 (KVFRK), the Binding affinity was 74 Ru.

5mer-409 (KQIYK): the Binding affinity was determined as 62 Ru.

On to 5mer-410 (RRFLR), for which the Binding affinity is given as 76 Ru.

With 5mer-411 (KGRLR), the Binding affinity is listed as 66 Ru.

Regarding 5mer-412 (RGRSR), the Binding affinity worked out at 81 Ru.

For the substance 5mer-413 (RWLTR), the Binding affinity was found to be 56 Ru.

With 5mer-414 (KVRCK), the Binding affinity came out at 71 Ru.

Take 5mer-415 (KVFLR): the Binding affinity is given as 77 Ru.

With 5mer-416 (KLYLR), the Binding affinity worked out at 67 Ru.

On to 5mer-417 (KWLQK), for which the Binding affinity is listed as 65 Ru.

As for 5mer-418 (RWRTR), the Binding affinity was found to be 53 Ru.

For 5mer-419 (RVYTR), the Binding affinity is listed as 67 Ru.

With 5mer-420 (KLFCR), the Binding affinity came to 84 Ru.

On to 5mer-421 (RVVYK), for which the Binding affinity amounted to 68 Ru.

For 5mer-422 (KWICK), the Binding affinity worked out at 87 Ru.

Regarding 5mer-423 (RRQLK), the Binding affinity is 60 Ru.

For the substance 5mer-424 (RVYLK), the Binding affinity turned out to be 87 Ru.

In the case of 5mer-425 (RGFYR), the Binding affinity came to 80 Ru.

Consider 5mer-426 (RRVSR), for which the Binding affinity worked out at 57 Ru.

Take 5mer-427 (RGLYR): the Binding affinity came to 87 Ru.

In the case of 5mer-428 (RQFLK), the Binding affinity was 86 Ru.

For the substance 5mer-429 (KSQYK), the Binding affinity is on record as 63 Ru.

For the substance 5mer-430 (KWRTK), the Binding affinity is listed as 80 Ru.

On to 5mer-431 (KVQLK), for which the Binding affinity came out at 81 Ru.

As to 5mer-432 (RQVRR), the Binding affinity amounted to 52 Ru.

As for 5mer-433 (KWRCR), the Binding affinity amounted to 73 Ru.

On to 5mer-434 (RVLQK), for which the Binding affinity was found to be 74 Ru.

Regarding 5mer-435 (KLRQR), the Binding affinity stood at 69 Ru.

In the case of 5mer-436 (RVFYK), the Binding affinity was found to be 60 Ru.

With 5mer-437 (RVRLR), the Binding affinity is 50 Ru.

5mer-438 (RVRSR): the Binding affinity was 76 Ru.

In the case of 5mer-439 (KRVTR), the Binding affinity was 65 Ru.

For 5mer-440 (RQVTK), the Binding affinity is reported as 57 Ru.

For 5mer-441 (KLIRK), the Binding affinity was 53 Ru.

For 5mer-442 (KVRLR), the Binding affinity is 61 Ru.

Turning to 5mer-443 (RGFTK), the Binding affinity is recorded as 80 Ru.

Turning to 5mer-444 (KQQYR), the Binding affinity is given as 65 Ru.

5mer-445 (RLFTR): the Binding affinity came to 77 Ru.

As for 5mer-446 (RGLQK), the Binding affinity came to 53 Ru.

With 5mer-447 (KGYYK), the Binding affinity is on record as 76 Ru.

As to 5mer-448 (RQIRK), the Binding affinity turned out to be 74 Ru.

For 5mer-449 (KGLYR), the Binding affinity is reported as 65 Ru.

Turning to 5mer-450 (RVIQK), the Binding affinity is on record as 78 Ru.

5mer-451 (RQVLK): the Binding affinity was 53 Ru.

Regarding 5mer-452 (RGVSK), the Binding affinity amounted to 82 Ru.

For 5mer-453 (KGVCR), the Binding affinity worked out at 68 Ru.

Turning to 5mer-454 (RQVLR), the Binding affinity is listed as 77 Ru.

Turning to 5mer-455 (RWLYK), the Binding affinity is 61 Ru.

Consider 5mer-456 (RLVCK), for which the Binding affinity amounted to 52 Ru.

On to 5mer-457 (RGQYK), for which the Binding affinity came to 59 Ru.

As to 5mer-458 (RRFLK), the Binding affinity was 65 Ru.

As to 5mer-459 (RSQLR), the Binding affinity is recorded as 76 Ru.

With 5mer-460 (RLQQR), the Binding affinity worked out at 74 Ru.

5mer-461 (KQLLK): the Binding affinity worked out at 74 Ru.

As to 5mer-462 (RWQSK), the Binding affinity turned out to be 69 Ru.

In the case of 5mer-463 (KWYTK), the Binding affinity came to 52 Ru.

On to 5mer-464 (RGVTR), for which the Binding affinity amounted to 57 Ru.

Regarding 5mer-465 (RWFRK), the Binding affinity is 57 Ru.

Take 5mer-466 (RRVRK): the Binding affinity was 53 Ru.

For the substance 5mer-467 (RRIYR), the Binding affinity is given as 83 Ru.

For the substance 5mer-468 (RWQCK), the Binding affinity stood at 54 Ru.

5mer-469 (KSRRR): the Binding affinity is 69 Ru.

In the case of 5mer-470 (KQRSK), the Binding affinity turned out to be 57 Ru.

As to 5mer-471 (RGYLR), the Binding affinity was found to be 69 Ru.

As for 5mer-472 (RRYRK), the Binding affinity came out at 55 Ru.

Take 5mer-473 (RLVQR): the Binding affinity is 75 Ru.

In the case of 5mer-474 (RQFLR), the Binding affinity is 80 Ru.

In the case of 5mer-475 (RRFCK), the Binding affinity was 56 Ru.

Take 5mer-476 (RSICK): the Binding affinity worked out at 70 Ru.

With 5mer-477 (KGYSR), the Binding affinity is 58 Ru.

On to 5mer-478 (RVQTK), for which the Binding affinity was determined as 75 Ru.

On to 5mer-479 (RQYYK), for which the Binding affinity is reported as 70 Ru.

With 5mer-480 (RWYLR), the Binding affinity turned out to be 75 Ru.

5mer-481 (KSYCK): the Binding affinity is listed as 78 Ru.

5mer-482 (KQFCK): the Binding affinity stood at 75 Ru.

Take 5mer-483 (RSISR): the Binding affinity is 51 Ru.

As for 5mer-484 (RSFQK), the Binding affinity was found to be 51 Ru.

For 5mer-485 (KRQRK), the Binding affinity came out at 58 Ru.
